Test results as given in patent US6261760A, “Regulation of the cell cycle by sterols” (priority 1999, dated 2001).

Test system: LDL FC uptake by fibroblast monolayers
Assay: Effects of metabolic inhibitors on uptake of 3H-cholesterol from LDL (Example 1)
Conditions: cells pretreated with proteinase K; 4 experiments

B1: proteinase K: proteinase K pretreatment of cells (protein, UniProt P06873 106-384, looked up)
Proteinase K: AAQTNAPWGLARISSTSPGTSTYYYDESAGQGSCVYVIDTGIEASHPEFEGRAQMVKTYYYSSRDGNGHGTHCAGTVGSRTYGVAKKTQLFGVKVLDDNGSGQYSTIIAGMDFVASDKNNRNCPKGVVASLSLGGGYSSSVNSAAARLQSSGVMVAVAAGNNNADARNYSPASEPSVCTVGASDRYDRRSSFSNYGSVLDIFGPGTSILSTWIGGSTRSISGTSMATPHVAGLAAYLMTLGKTTAASACRYIADTANKGDLSNIPFGTVNLLAYNNYQA
  inhibition of uptake of 3H-FC LDL label: 7±6%
